Bridge positions count the residues as written; N and C are the ends. Square brackets hold non-standard residues; d marks the D form. Ends that are not written are not given here. * marks the point of attachment. Acetyl(2-(4-imidazolyl)) = O=C(Cc1c[nH]cn1)*; Aib = CC(C)(N)C(=O)O
B1: triple agonist of SEQ ID NO: 56 (peptide)
peptide: H[Aib]QGTFTSDYSKYLDEKRQKEFVNWLLAQC
modifications: bridge (positions not given here); also: ring formation between two underlined residues

What follows are binders tested against human GCG receptor (human, UniProt P47871 26-477) (assay: cell-based or functional assay).
human GCG receptor, sequence (P47871 26-477): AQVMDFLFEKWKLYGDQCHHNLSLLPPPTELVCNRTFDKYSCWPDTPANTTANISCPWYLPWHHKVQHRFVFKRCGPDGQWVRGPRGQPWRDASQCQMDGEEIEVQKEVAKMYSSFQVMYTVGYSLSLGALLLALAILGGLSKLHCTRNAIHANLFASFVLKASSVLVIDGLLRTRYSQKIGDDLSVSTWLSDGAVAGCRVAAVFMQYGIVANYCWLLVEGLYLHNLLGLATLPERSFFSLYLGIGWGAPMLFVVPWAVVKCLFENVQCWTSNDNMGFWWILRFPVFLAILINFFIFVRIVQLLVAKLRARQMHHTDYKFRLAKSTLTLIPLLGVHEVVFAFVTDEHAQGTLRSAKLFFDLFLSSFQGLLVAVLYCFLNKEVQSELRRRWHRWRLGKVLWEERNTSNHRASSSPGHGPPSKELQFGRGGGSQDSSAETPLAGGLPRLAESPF

HGQGTFTSDCSKYMDGQAAQDFVAWLLAGGPSSGAPPPS [triple agonist of SEQ ID NO: 45] and H[Aib]QGTFTSDVSSYLDGQAAKEFIAWLVKGC [triple agonist of SEQ ID NO: 1] cannot be ordered by “In vitro activity compared with native peptide (%) vs Glucagon (cAMP EC50)” value (from here on “In vitro activity … (%) vs Glucagon (cAMP EC50)”): less than 0.1% for the first, less than 0.1% for the second.

Compared with H[Aib]QGTFTSDKSKYLDERACQDFVQWLLDGGPSSGAPPPS [triple agonist of SEQ ID NO: 40], H[Aib]QGTFTSDYSKYLDEKRAKEFVQWLLDHHPSSGQPPPSC (bridge 16-20) [triple agonist of SEQ ID NO: 50] is higher in “In vitro activity … (%) vs Glucagon (cAMP EC50)” value: less than 0.1% for the first, 50.5% for the second.

Compared with H[Aib]QGTFTSDYSIAMDEIHQKDFVNWLLNTKC (bridge 16-20) [triple agonist of SEQ ID NO: 35], H[Aib]QGTFTSDYSKYLDECRQKEFVQWLLNGGPSSGAPPPSG (bridge 16-20) [triple agonist of SEQ ID NO: 37] is higher in “In vitro activity … (%) vs Glucagon (cAMP EC50)” value: less than 0.1% for the first, 6.21% for the second.

Compared with H[Aib]QGTFTSDYSKYLDEKRQKEFVQWLLDTC (bridge 16-20) [triple agonist of SEQ ID NO: 52], B1 is lower in “In vitro activity … (%) vs Glucagon (cAMP EC50)” value: 7.5% for the first, 4.9% for the second.

First: H[Aib]QGTFTSDYSKYLDGQHAQCFVAWLLAGGGPSSGAPPPS [triple agonist of SEQ ID NO: 39]
Second: H[Aib]QGTFTSDVSSYLLGQQQKEFIAWLVKGGGPSSGAPPPSC [triple agonist of SEQ ID NO: 5]
The “In vitro activity … (%) vs Glucagon (cAMP EC50)” value of the first is higher: 0.53% for the first, less than 0.1% for the second.

First: Y[Aib]QGTFTSDYSKYLDEKRAKEFVQWLLDHHPSSGQPPPSC (not fully specified (bridges)) [triple agonist of SEQ ID NO: 42]
Second: H[Aib]QGTFTSDVSSYLLGQQQKEFIAWLVKGC [triple agonist of SEQ ID NO: 4]
The “In vitro activity … (%) vs Glucagon (cAMP EC50)” value of the first is higher: 206% for the first, less than 0.1% for the second.

First: H[Aib]QGTFTSDYSKYLCEKRQKEFVQWLLNGGPSSGAPPPSG (bridge 16-20) [triple agonist of SEQ ID NO: 36]
Second: [Acetyl(2-(4-imidazolyl))][Aib]QGTFTSDYSICMDEIHQKDFVNWLLNTK (bridge 16-20) [triple agonist of SEQ ID NO: 49]
The “In vitro activity … (%) vs Glucagon (cAMP EC50)” value of the first is higher: 0.39% for the first, less than 0.1% for the second.

What follows are binders tested against human GLP-1 receptor (human, UniProt P43220 24-463) (assay: cell-based or functional assay).

Compared with HGQGTFTSDCSKYMDGQAAQDFVAWLLAGGPSSGAPPPS [triple agonist of SEQ ID NO: 45], H[Aib]QGTFTSDVSSYLDGQAAKEFIAWLVKGC [triple agonist of SEQ ID NO: 1] is lower in “In vitro activity compared with native peptide (%) vs GLP-1 (cAMP EC50)” value (from here on “In vitro activity … (%) vs GLP-1 (cAMP EC50)”): 6.6% for the first, 3.2% for the second.

Going from H[Aib]QGTFTSDKSKYLDERACQDFVQWLLDGGPSSGAPPPS [triple agonist of SEQ ID NO: 40] to H[Aib]QGTFTSDYSKYLDEKRAKEFVQWLLDHHPSSGQPPPSC (bridge 16-20) [triple agonist of SEQ ID NO: 50], the “In vitro activity … (%) vs GLP-1 (cAMP EC50)” value falls from 75.2% to 67.4%.

Going from H[Aib]QGTFTSDYSIAMDEIHQKDFVNWLLNTKC (bridge 16-20) [triple agonist of SEQ ID NO: 35] to H[Aib]QGTFTSDYSKYLDECRQKEFVQWLLNGGPSSGAPPPSG (bridge 16-20) [triple agonist of SEQ ID NO: 37], the “In vitro activity … (%) vs GLP-1 (cAMP EC50)” value rises from 7.5% to 236%.

First: H[Aib]QGTFTSDYSKYLDEKRQKEFVQWLLDTC (bridge 16-20) [triple agonist of SEQ ID NO: 52]
Second: B1
The “In vitro activity … (%) vs GLP-1 (cAMP EC50)” value of the first is lower: 44.1% for the first, 57.9% for the second.

Compared with H[Aib]QGTFTSDYSKYLDGQHAQCFVAWLLAGGGPSSGAPPPS [triple agonist of SEQ ID NO: 39], [Acetyl(2-(4-imidazolyl))][Aib]QGTFTSDKSSYLDERAAQDFVQWLLDGGPSSGAPPPSS [triple agonist of SEQ ID NO: 38] is lower in “In vitro activity … (%) vs GLP-1 (cAMP EC50)” value: 13.9% for the first, 2.3% for the second.

First: H[Aib]QGTFTSDVSSYLLGQQQKEFIAWLVKGGGPSSGAPPPSC [triple agonist of SEQ ID NO: 5]
Second: Y[Aib]QGTFTSDYSKYLDEKRAKEFVQWLLDHHPSSGQPPPSC (not fully specified (bridges)) [triple agonist of SEQ ID NO: 42]
The “In vitro activity … (%) vs GLP-1 (cAMP EC50)” value of the first is higher: 42.1% for the first, 33.9% for the second.

First: H[Aib]QGTFTSDVSSYLLGQQQKEFIAWLVKGC [triple agonist of SEQ ID NO: 4]
Second: H[Aib]QGTFTSDYSKYLCEKRQKEFVQWLLNGGPSSGAPPPSG (bridge 16-20) [triple agonist of SEQ ID NO: 36]
The “In vitro activity … (%) vs GLP-1 (cAMP EC50)” value of the first is lower: 8.5% for the first, 37.4% for the second.

For [Acetyl(2-(4-imidazolyl))][Aib]QGTFTSDYSICMDEIHQKDFVNWLLNTK (bridge 16-20) [triple agonist of SEQ ID NO: 49], the “In vitro activity … (%) vs GLP-1 (cAMP EC50)” value was 29.8%.

Each binder was assayed against T1, human GIP receptor (human, UniProt P48546 22-466) (assay: cell-based or functional assay).
T1 sequence (looked up): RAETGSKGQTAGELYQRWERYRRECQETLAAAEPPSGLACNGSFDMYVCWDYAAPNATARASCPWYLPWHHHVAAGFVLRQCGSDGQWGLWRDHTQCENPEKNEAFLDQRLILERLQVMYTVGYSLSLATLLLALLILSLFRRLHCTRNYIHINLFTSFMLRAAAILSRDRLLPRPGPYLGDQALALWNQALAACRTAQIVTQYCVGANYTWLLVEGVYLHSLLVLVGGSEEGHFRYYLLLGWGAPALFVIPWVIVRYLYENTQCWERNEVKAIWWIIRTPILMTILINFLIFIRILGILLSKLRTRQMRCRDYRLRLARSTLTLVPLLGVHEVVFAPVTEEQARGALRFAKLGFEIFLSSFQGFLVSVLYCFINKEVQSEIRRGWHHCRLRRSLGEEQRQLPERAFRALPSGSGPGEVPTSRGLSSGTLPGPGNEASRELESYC

HGQGTFTSDCSKYMDGQAAQDFVAWLLAGGPSSGAPPPS [triple agonist of SEQ ID NO: 45] and H[Aib]QGTFTSDVSSYLDGQAAKEFIAWLVKGC [triple agonist of SEQ ID NO: 1] cannot be ordered by “In vitro activity compared with native peptide (%) vs GIP (cAMP EC50)” value (shortened to “In vitro activity … (%) vs GIP (cAMP EC50)”): less than 0.1% for the first, less than 0.1% for the second.

Compared with H[Aib]QGTFTSDKSKYLDERACQDFVQWLLDGGPSSGAPPPS [triple agonist of SEQ ID NO: 40], H[Aib]QGTFTSDYSKYLDEKRAKEFVQWLLDHHPSSGQPPPSC (bridge 16-20) [triple agonist of SEQ ID NO: 50] is higher in “In vitro activity … (%) vs GIP (cAMP EC50)” value: less than 0.1% for the first, 2.7% for the second.

Going from H[Aib]QGTFTSDYSIAMDEIHQKDFVNWLLNTKC (bridge 16-20) [triple agonist of SEQ ID NO: 35] to H[Aib]QGTFTSDYSKYLDECRQKEFVQWLLNGGPSSGAPPPSG (bridge 16-20) [triple agonist of SEQ ID NO: 37], the “In vitro activity … (%) vs GIP (cAMP EC50)” value rises from 1.3% to 2.2%.

First: H[Aib]QGTFTSDYSKYLDEKRQKEFVQWLLDTC (bridge 16-20) [triple agonist of SEQ ID NO: 52]
Second: B1
The “In vitro activity … (%) vs GIP (cAMP EC50)” value of the first is lower: 0.3% for the first, 0.8% for the second.

H[Aib]QGTFTSDYSKYLDGQHAQCFVAWLLAGGGPSSGAPPPS [triple agonist of SEQ ID NO: 39] and H[Aib]QGTFTSDVSSYLLGQQQKEFIAWLVKGGGPSSGAPPPSC [triple agonist of SEQ ID NO: 5] cannot be ordered by “In vitro activity … (%) vs GIP (cAMP EC50)” value: less than 0.1% for the first, less than 0.1% for the second.

First: Y[Aib]QGTFTSDYSKYLDEKRAKEFVQWLLDHHPSSGQPPPSC (not fully specified (bridges)) [triple agonist of SEQ ID NO: 42]
Second: H[Aib]QGTFTSDVSSYLLGQQQKEFIAWLVKGC [triple agonist of SEQ ID NO: 4]
The “In vitro activity … (%) vs GIP (cAMP EC50)” value of the first is higher: 7.8% for the first, less than 0.1% for the second.

Going from H[Aib]QGTFTSDYSKYLCEKRQKEFVQWLLNGGPSSGAPPPSG (bridge 16-20) [triple agonist of SEQ ID NO: 36] to [Acetyl(2-(4-imidazolyl))][Aib]QGTFTSDYSICMDEIHQKDFVNWLLNTK (bridge 16-20) [triple agonist of SEQ ID NO: 49], the “In vitro activity … (%) vs GIP (cAMP EC50)” value rises from 0.2% to 3.3%.
